Test results as given in publication PMC3402150, “An endogenous factor enhances ferulic acid decarboxylation catalyzed by phenolic acid decarboxylase from Candida guilliermondii” (AMB Express, 2012).

Tested on: COc1cc(/C=C/C(=O)O)ccc1O
Assay: purified protein
Conditions: control without ultrafiltrate activator, general assay 0.1 M sodium phosphate pH 6.0, 25°C

Substance “CgPAD (phenolic acid decarboxylase) (Meyerozyma guilliermondii)” has a Km of 5.31 mM and a kcat of 89.7 s⁻¹.
